Data: the DeepSol protein solubility set

Assay: soluble on expression in E. coli; label from the status in PepcDB or PDB records

Sequence	soluble on expression in E. coli
MGSDKIHHHHHHMIIDTHIHAYPTSDDSKMTLEEIVAQARIIGLDGICITDHDSNEIMARAHEYRKQMGYPIFVGAEVFTWEGDVIVFGLERLPEERVSARYLLDLVNKANGVAISAHPFRQNNRGMGNSIREHKDLHGVEAFNGSTDHANNMKACDLAMELGIPVFGASDAHNTEALGKFATVFPNGLKDEKDLIEAIKMGKVYPVAYNHSADAKWTVIPPIG	not soluble
MNKALSVENLGFYYQAENFLFQQLNFDLNKGDILAVLGQNGCGKSTLLDLLLGIHRPIQGKIEVYQSIGFVPQFFSSPFAYSVLDIVLMGRSTHINTFAKPKSHDYQVAMQALDYLNLTHLAKREFTSLSGGQRQLILIARAIASECKLILLDEPTSALDLANQDIVLSLLIDLAQSQNMTVVFTTHQPNQVVAIANKTLLLNKQNFKFGETRNILTSENLTALFHLPMFEQQAQYKESFFTHFVPLYKTLLK	soluble
MQRHTLPLRPLLGTLLLGLLLAGCDASRDDATALGPVPIASGDECHVCGMLIEEMPGPKGESVLPGAVRKFCSTAELFGWWLQPENRQGQARLYVHDMSQADWRHPDDARLIDATRAYYVVGIQRPGGMGATLASFADEEAATRLAAEEGGRVLRFDEIDQAVLQGVGGDHPHRHPAH	not soluble
MGSDKIHHHHHHMAEKPISLSQAPAGYSDWLSELKTKIHSAQQRATLAVNQELVLLYWQIGQEILTRQAELGWGAKVVERLAHDLRTAFPDMKGFSPRNLKYMRAFAEAWPDLEFVQALLAQLPWYHQLALLDKLDNTDSRTWYAQKALENHWSRNVLVMHIESGLHQRQGAAITNFAATLPKPQSDLARESIKDPYRFDFLGLTEAAQEREIEHALVQHVTQFLLELGAGFAFVGRQVLMQVGDEEFFIDLLFYHLKLRCYVVIELKTGKFKPEHLGQLSFYMTAIDKQVKTEPDNATIGLLLCKSKDKVVAEYALGDKSQAMGIAEYKLQQALPEVLESNLPSIEQIERELQGEA	not soluble
MSLREIHVDTLTDAVAKLCIDACHRLPDNLVESFHKAAEKEVSPLGKSVLMKLIDNDRIARENDVSYCHDTGLAIVFVEVGQDVHIVGGSYEDAIQAGVRKGYAEGYMRKSVVSDPLLRVNSNDNTPAVVHTEIVPGDNIEVTVVPKGGGSENWSTMKFLLPGEGAEGVKKFVLSAIEAAGGAACPPLTVGVGIGGSFDKVTAIAKKAILRDIGVHHKEPHVAKLEAELLDAINKTGIGPQGYGGVNTALWVSVETYACHITALPVAVNIQCHAGRRATAVIEGHHHHHH	soluble
MGSDKIHHHHHHMTVAKGSIHGIIGENGAGKSTLMSILYGFYQADSGEIKIGGQSTVIKDSQAAISSGIGMVHQHFMLVENFTVLENVMLGAEGGALLAKGTAAARASLKQLETDYGLDVDPDAVVEELPVGRQQRVEILKALYRGADILILDEPTGVLTPAEADHLFKILRVLRDQGKTVILITHKLREIMAITDTVSVMRRGEIVATRKTVETSVEELAELMVGRRVLLRVDKQPAQPRDVLLSVRNLTVKDSRGVIMVDDVSFDVREGEIVGIAGVAGNGQSELLEAITGIRKPMSGEILIAGKLVTGYDPARLRDLGLAHIPEDRHHMGLVLPFEESQNAILGYHRDERYGKGMFLDPKAIRAAAEVEIAKYDIRPPNPRLKTANFSGGNQQKIVVAREIERDPNVLIIGQPTRGVDIGAIEFIHRRIVETRDKGKALLLVSVELDEIRSLSDRILVMFAGKVVGEKTADADEQTLGLMMAGIAA	not soluble
MSLKTVAVIGAMEQEIELLREMMENVKAVSFGRFSAYEGELAGKRMVLALSGIGKVNAAVATAWIIREFAADCVINTGSAGGLGKGLKVGDVVIGTETAHHDVDVTAFGYAWGQVPQLPARFASDGILIEAAKRAARTFEGAAVEQGLIVSGDRFVHSSEGVAEIRKHFPEVKAVEMEAAAIAQTCHQLETPFVIIRAVSDSADEKADISFDEFLKTAAANSAKMVAEIVKSL	soluble
MKSEILQQIKQYETIILHRHVRPDPDAYGSQMGLAEIIRASFPEKKVYSVGNDEVSLQFLGAVDEIADEVYKDALVIVCDTANQERVSDVRFSSGQKLIKIDHHPNDDAYGDLLWVDTTASSCSEMIVAFWETFSDELILNETAARLLYAGIVGDTGRFLYPSTTEETLRLSAHLVTFPFDRPALYRELYELPKNTVKLSGYILQNFVMDENGAATVYLSDTLLREFEVDPRDASALVSCIENVEGIKAWIMFIQEGPVFRARLRSKGPVINELAKEYGGGGHPLASGATLHNEEEIKEMTVKLARICAAKLEHHHHHH	soluble
MGSDKIHHHHHHMMFESHSQIISAAEELLTKRYGGSQSLTDWDRLAGSGAAVVLRARVASSPFFPNRSVVVKYIPPTGRLIDESTLMREVVSYQFTTSLNADVRPGPVLLAYDVEQHLLVISDSGDGDTFAELLERHENDVRIGILRNLGEAIGKLHVGTAAKEQDFNILLHRMLVKHPEVQPMHGFRERLLRLNIGVGITLVEQAGITVPDVVKSFAQEAMRRLVTGQHRAFTPFDLSPDNIIVADRTEFLDYEWAGFRDAAFDVASVIAGFPQYLFARPVSDAEADIFIESWVQQVGDMWPNVRNTPRLHARILTALIGWAFSSVTMMYLGSSSEAYEELFHKIGTEKATAFDVEEIVKEIAATGDILLGTFVPETSEDADLVALLRQDLYETFEALNRFAQRESDTRFPVVADFAQAVVDLLTDDESTE	not soluble
MKRLTIEMLPTLIGNEKLLVDCLFILFCTLKTKSLPPIRVLVRTNQSNLILDTLYEKLSKAVDKKLIFVASPEKPFDVIITDIFSEVSVKSTVPTYYVDFSASIGELAQSLENLNTQIVTKQSPRHF	not soluble
MKETTIYGRLVMAVKNTAQVVIGGKIITLGGYESEEYFQKVASYINNKIAELSEMPGYTRQPVETKHTLLSLNVTDDYFKAKKQAEIFEQDLQQKDQEMYELKHELIALRMKIEETEKNAQEAQQQKELLEGKVKELNDEIDKLLK	not soluble
MISLEDASLTKKGIVKLSSATDSDSEALAATPKAVKTVMGEVRTKAPLDSPAFTGTPTTPTPPGDAKGLQTTNAEFVRKLIAALVGSVLEPLDTLQELADALGNDPNFATTVLNKLAGKQPLDETLTALSGKSVDGLIEYVGLRETISRAADALQKSQNGGDIPDKDLFVRRIGAARAFDGAVIIGCDDNPWTTAEFIVWLESQGAFNHPYWMCRGSWSYAYNKIITDTGCGNICLAGAVIEVMGVRGAMTIRVTTSHSVSGW	not soluble
ADTMTFTAKNGNVTFDHKKHQTIVPDCAVCHGKTPGKIEGFGKEMAHGKSCKGCHEEMKKGPTKCGECHKK	soluble
MSLTVTIKDVAKKANVAPSTVSRVIADNPSISEKTKRRVRKVMSELGYHPNLNARSLANQTTKTIGLVMPSSANKAFQNPFFPEVIRGISSFAHVEGYALYMSTGETEEEIFNGVIKMVQGRQIGGIILLYSRENDRIIQYLNEKNFPFVLIGKPYDKKDKITYVDNDNYTAAREVAEYFISLGHKRIAFIGGGSDLLVTKDRLAGMSDALKLADIQLPSEYIFHLDFSRESGQQAVEELMGLKEPPTAIMATDDLIGLGVLSALTAKGISVPKDVSLVSFNNVLLSEIASPPLTTVDVNIYQLGYEAAKALVDKVEHSESSSKCIVIPHKLLKRQTCEGHHHHHH	soluble
MAHHHHHHMTTYTLVLLRHGESTWNKENKFTGWTDVPLSEKGEEEAIAAGKYLKEKNFKFDVVYTSVLKRAICTAWNVLKTADLLHVPVVKTWRLNERHCGSLQGLNKSETAKKYGEEQVKIWRRSYDIPPPKLDKEDNRWPGHNVVYKNVPKDALPFTECLKDTVERVLPFWFDHIAPDILANKKVMVAAHGNSLRGLVKHLDNLSEADVLELNIPTGVPLVYELDENLKPIKHYYLLDSEELKKKMDEVANQGKAK	soluble
MGSDKIHHHHHHMEIKKFIENYREAFGEYAELPIVFWYSDILENETGKVNGCFFKSMSKVRGGNTISLNAETIGCGGGKFYTGFTDMPEHVPTFVSLKERYKQTPEMVKSFIEQLGVPRAEKEYLHFARIDKVETFDHLEGILFLANPDILSGLTTWAFFDNNKEDTVISTFGSGCSSVVTQTILENRKGGYRTFIGFFDPSVRPYFEADILSYTIPMSRFKVMYETMRSSCLFDTHAWGKIRERNHNSYKE	not soluble
